From article PMC7046470
Values belong to the substance of their own block, whether it stands above or below them.

Key:
GFP-Atg8a = test: co-immunoprecipitation, densitometry of immunoblots; conditions: Arabidopsis protoplasts; immunoprecipitation with anti-HA antibodies; three biological replicates; parent: est. 1.0; read off a plot
[1] = molecular target: maize Atg8a, split-ubiquitin two-hybrid fusion; test: split-ubiquitin Y2H; conditions: colonies on -LWHA medium versus -LW medium, bait pBT3N-ATG8a, parent: est. 52, read off a plot
HA-Rtn2 (maize) [2] = test: co-IP; anti-HA affinity gel on lysates of Arabidopsis protoplasts (wild type; also atg5-1) transiently expressing the proteins, incubated with or without 2 mM DTT or 5 μg/mL tunicamycin for 3 hr; 150 mM Tris-HCl pH 7.5, 150 mM NaCl, 1.5% Triton X-100, 2 hr at 4°C
HA-Rtn2 (maize) [3] = molecular target: HA-Rtn2 (maize)
[4] = molecular target: HA-Rtn2(mAIM1,2,5,6) (maize)

Substance: HA-Rtn2 mAIM1,5
- ratio to parent (GFP-Atg8a): 0.38

Substance: maize Rtn2, split-ubiquitin two-hybrid fusion mAIM1
- response ([1]; prey pPR3C-Rtn2(mAIM1)): 33%

Substance: HA-Rtn2 mAIM1,2,5,6
- ratio to parent (GFP-Atg8a): 0.02

Substance: HA-Rtn2 mAIM1
- ratio to parent (GFP-Atg8a): 0.87

Substance: maize Rtn2, split-ubiquitin two-hybrid fusion mAIM1,2,5,6
- response ([1]; prey pPR3C-Rtn2(mAIM1,2,5,6)): 7%

Results, then the substance that gave them:

- ratio to parent (GFP-Atg8a): 0.22
Substance: HA-Rtn2 mAIM1,5,6

- response ([1]; prey pPR3C-Rtn2(mAIM1,5)): 16%
Substance: maize Rtn2, split-ubiquitin two-hybrid fusion mAIM1,5

- response ([1]; prey pPR3C-Rtn2(mAIM1,5,6)): 12%
Substance: maize Rtn2, split-ubiquitin two-hybrid fusion mAIM1,5,6

- fold increase in binding upon DTT treatment against no DTT (HA-Rtn2 (maize) [2]): 3 fold
- percent of Arabidopsis protoplasts (DTT and ConA) with autophagic bodies labeled with both GFP-Atg8a and Rtn2-mCherry (Rtn2 as mCherry fusion) (HA-Rtn2 (maize) [3]): 54%
- percent of Arabidopsis protoplasts (DTT and ConA) with autophagic bodies labeled with both GFP-Atg8a and Rtn2(mAIM1,2,5,6)-mCherry (mCherry fusion) [4]: 23%
- percent of Arabidopsis protoplasts (DTT and ConA) with autophagic bodies labeled with both GFP-Atg8a and Rtn2(mAIM1)-mCherry (mCherry fusion) (HA-Rtn2(mAIM1) (maize)): 42%
Substance: GFP-Atg8a (natural protein)
